Experimental data published in publication PMC9402439, “Reconstitution of a telomeric replicon organized by CST”.

Target: Polα-primase, recombinant (Insect PP) (Homo sapiens, UniProt P09884;Q14181;P49642;P49643 1-1462;1-598;1-420;1-509)
Assay: EMSA; Kd,app similar to CST-Polα-primase, value only in figure; complex dissociates during electrophoresis; CST EMSA: 20 mM HEPES-NaOH pH 8.0, 150 mM NaCl, 2 mM MgCl2, 0.2 mM EGTA, 0.1% NP-40, 10% glycerol, 1 mM DTT, 2 h on ice, 0.7% agarose 1x TBE gel at 4 °C; POT1-TPP1N EMSA: C-strand synthesis buffer, 30 min at 30 °C
Settings: protein: recombinant; copies: 1;1;1;1; label: 5'-32P; folds into G-quadruplex in KCl and NaCl, not LiCl

Chain of Polα-primase, recombinant (Insect PP) (P09884 whole entry, chain 1 of 4): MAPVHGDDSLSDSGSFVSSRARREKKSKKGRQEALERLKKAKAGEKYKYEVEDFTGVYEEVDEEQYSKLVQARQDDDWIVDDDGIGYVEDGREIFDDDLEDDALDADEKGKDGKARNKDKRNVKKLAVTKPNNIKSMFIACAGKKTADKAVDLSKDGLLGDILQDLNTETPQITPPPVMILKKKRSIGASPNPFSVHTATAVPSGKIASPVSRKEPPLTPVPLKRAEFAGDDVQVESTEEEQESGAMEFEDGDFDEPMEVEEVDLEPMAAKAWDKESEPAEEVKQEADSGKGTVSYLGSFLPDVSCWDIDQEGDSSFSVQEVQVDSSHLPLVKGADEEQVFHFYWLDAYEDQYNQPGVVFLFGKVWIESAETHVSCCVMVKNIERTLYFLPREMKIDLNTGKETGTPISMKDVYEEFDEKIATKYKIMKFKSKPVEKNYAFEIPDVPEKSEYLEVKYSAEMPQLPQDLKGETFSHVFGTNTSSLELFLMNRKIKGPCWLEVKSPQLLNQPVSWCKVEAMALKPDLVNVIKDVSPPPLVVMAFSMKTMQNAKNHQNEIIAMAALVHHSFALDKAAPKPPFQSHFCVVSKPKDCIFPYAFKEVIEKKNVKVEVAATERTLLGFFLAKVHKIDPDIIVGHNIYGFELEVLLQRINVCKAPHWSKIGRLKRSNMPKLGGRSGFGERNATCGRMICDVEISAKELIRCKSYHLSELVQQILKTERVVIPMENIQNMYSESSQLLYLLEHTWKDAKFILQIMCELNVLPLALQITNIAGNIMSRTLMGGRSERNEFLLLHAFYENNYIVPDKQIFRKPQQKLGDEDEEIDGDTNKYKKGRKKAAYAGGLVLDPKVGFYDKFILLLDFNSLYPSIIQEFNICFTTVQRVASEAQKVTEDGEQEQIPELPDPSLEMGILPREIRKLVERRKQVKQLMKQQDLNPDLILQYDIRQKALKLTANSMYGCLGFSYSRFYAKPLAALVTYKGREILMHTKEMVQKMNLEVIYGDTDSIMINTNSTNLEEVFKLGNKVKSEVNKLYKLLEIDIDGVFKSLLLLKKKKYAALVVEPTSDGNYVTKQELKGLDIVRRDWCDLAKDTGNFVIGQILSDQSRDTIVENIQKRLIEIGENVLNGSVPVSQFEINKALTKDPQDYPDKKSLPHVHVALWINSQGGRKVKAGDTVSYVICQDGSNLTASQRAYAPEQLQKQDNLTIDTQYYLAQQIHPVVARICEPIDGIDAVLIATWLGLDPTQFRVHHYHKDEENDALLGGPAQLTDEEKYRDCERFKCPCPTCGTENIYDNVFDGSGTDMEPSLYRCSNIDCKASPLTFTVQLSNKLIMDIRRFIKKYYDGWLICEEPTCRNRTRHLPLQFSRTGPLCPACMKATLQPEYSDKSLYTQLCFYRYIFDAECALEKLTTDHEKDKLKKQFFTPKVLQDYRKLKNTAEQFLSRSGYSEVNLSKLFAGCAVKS
Chain of Polα-primase, recombinant (Insect PP) (Q14181 whole entry, chain 2 of 4): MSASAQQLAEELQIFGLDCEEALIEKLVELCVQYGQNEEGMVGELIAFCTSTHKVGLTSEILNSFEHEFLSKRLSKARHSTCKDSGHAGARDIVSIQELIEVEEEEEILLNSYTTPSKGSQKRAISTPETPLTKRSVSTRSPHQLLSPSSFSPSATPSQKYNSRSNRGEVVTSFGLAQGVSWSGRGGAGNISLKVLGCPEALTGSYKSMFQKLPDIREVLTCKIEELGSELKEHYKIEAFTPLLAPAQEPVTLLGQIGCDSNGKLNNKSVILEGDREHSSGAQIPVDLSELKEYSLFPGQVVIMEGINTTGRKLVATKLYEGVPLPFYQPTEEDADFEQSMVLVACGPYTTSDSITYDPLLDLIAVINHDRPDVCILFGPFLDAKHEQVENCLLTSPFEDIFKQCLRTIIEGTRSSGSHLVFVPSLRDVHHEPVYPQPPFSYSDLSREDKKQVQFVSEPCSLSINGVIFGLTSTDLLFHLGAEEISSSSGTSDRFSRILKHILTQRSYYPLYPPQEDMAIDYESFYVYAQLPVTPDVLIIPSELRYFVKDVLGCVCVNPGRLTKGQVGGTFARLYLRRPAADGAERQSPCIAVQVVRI
Chain of Polα-primase, recombinant (Insect PP) (P49642 whole entry, chain 3 of 4): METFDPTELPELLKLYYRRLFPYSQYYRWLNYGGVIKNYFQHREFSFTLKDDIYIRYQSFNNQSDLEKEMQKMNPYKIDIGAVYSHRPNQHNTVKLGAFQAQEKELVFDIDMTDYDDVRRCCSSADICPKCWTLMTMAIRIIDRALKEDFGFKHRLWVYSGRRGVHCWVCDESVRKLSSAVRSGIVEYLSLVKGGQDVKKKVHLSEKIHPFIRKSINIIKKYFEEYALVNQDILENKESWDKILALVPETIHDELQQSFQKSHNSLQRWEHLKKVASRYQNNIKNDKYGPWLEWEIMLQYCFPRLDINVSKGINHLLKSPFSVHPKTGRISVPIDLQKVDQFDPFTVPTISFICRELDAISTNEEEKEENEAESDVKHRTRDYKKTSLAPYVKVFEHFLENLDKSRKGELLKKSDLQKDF
Chain of Polα-primase, recombinant (Insect PP) (P49643 whole entry, chain 4 of 4): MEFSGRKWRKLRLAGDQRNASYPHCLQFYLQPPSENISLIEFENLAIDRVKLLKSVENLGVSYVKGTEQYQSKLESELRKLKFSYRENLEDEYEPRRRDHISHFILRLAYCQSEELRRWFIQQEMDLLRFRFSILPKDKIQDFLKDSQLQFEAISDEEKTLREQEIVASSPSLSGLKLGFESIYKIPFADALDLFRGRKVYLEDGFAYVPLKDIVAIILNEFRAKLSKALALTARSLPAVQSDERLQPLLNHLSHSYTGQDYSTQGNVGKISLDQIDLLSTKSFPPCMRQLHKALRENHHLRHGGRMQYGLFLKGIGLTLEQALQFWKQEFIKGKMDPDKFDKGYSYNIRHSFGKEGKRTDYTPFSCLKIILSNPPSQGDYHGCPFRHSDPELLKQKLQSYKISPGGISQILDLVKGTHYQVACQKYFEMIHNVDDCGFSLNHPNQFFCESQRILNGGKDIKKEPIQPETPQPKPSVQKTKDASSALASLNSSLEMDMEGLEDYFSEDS

B1: 9xTEL (ssDNA)
DNA: TTAGGGTTAGGGTTAGGGTTAGGGTTAGGGTTAGGGTTAGGGTTAGGGTTAGGG
binding result: binds
